Tests used:
[1] = target: Ubiquitin (UniProt P0CG48 1-76); test: NMR titration
[2] = target: PLIC-2 UBL domain UBLN2 1-107 (human, UniProt Q9UHD9 1-107); test: NMR titration
Sequence of PLIC-2 UBL domain UBLN2 1-107 (Q9UHD9 1-107): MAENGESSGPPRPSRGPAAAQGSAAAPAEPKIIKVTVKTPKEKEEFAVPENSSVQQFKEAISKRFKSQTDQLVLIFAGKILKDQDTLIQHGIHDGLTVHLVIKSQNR

Kd [1]: 8.1 ± 1.5 µM
Kd [2]: 175 ± 25 µM
Binder: PEVRFQQQLEQLNAMGFLNREANLQALIATGGDINAAIERLLGSQPS (domain or fragment, human, UniProt Q9UHD9 578-624, looked up) [PLIC-2 UBA domain UBLN2 578-624]

From article PMC5341616 (Biochemistry and Biophysics Reports, 2017)
